Consider seven molecules from patent publication US20210070855A1 (NANJING LEGEND BIOTECH, published 2021).

Test [1] deals with T1, human CD47 on cells (human, UniProt Q08722 19-323).
T1 construct: also called CHO-K1/huCD47; human CD47 over-expressed in CHO-K1 cells
The test is described as follows: flow cytometry on CHO-K1/huCD47 cells; x axis Log(nM), unit taken from the axis. (In flow cytometry, cells or beads pass a laser one at a time.)
Experimental: (§1) Binding to cell-expressed human CD47 was evaluated on human CD47 over-expressing CHO cells (GenScript, Cat #M00581). Anti-CD47 antibody dilution series was prepared in FACS buffer. CHO-K1/human CD47 cells were transferred to a 96-well U-bottom plate and anti-CD47 antibody dilution was added. […] The cells were then washed twice with wash buffer. Cells were analyzed for binding by FACSCalibur (BD Bioscience, San Jose, Calif.) and Flowjo software.

For test [2], the target named is T1, human CD47 on cells. As to the kind of experiment: flow cytometry on human red blood cells; unit taken from the axis.
In test [3] the target is T1, human CD47 on cells. As to the kind of experiment: flow cytometry, blocking of human SIRPα binding to CHO-K1/huCD47 cells.
Experimental: (§2) After 30 minutes incubation at 4° C., cells were washed twice with FACS buffer.
In test [4] the target is T2, cynomolgus monkey CD47 on CHO-K1 cells (cynomolgus monkey, UniProt A0A5F8AK49 19-323 (rhesus entry)).
T2 construct: whole, on cells; also called CHO-K1/cyno CD47; CHO-K1/cynoCD47
The test is described as follows: flow cytometry on CHO-K1/cyno CD47 cells; unit taken from the axis.
Experimental: (§3) Briefly, binding to cell-expressed cyno CD47 was evaluated on cynomolgus monkey CD47 over-expressing CHO cells. Anti-CD47 antibody dilution series was prepared in FACS buffer. CHO-K1/cynomolgus monkey CD47 cell were transferred to a 96-well U-bottom plate and add CD47 antibody dilution. After 30 minutes incubation at 4° C., cells were washed twice with FACS buffer. […] The cells were washed twice with wash buffer, and then analyzed for binding by using FACSCalibur (BD Bioscience, San Jose, Calif.) and Flowjo software.

Test [5] deals with T3, human CD47-His protein (human, UniProt Q08722 19-139, limits assumed).
T3 construct: It includes the signal peptide and the membrane-spanning region, which a soluble protein would lack; not shown: His tag
The test is described as follows: SPR (Biacore T200), antibody captured, human CD47-His as analyte, 1:1 model. Background: Surface plasmon resonance follows binding to a sensor surface in real time, without labels.

The target of test [6] is T4, CD47 protein.
T4 construct: also called CD47 (ELISA antigen); not shown: The carrier of the coated recombinant protein (an Fc tag as in CD47-Fc, or a His tag as in CD47-His)
The test is described as follows: ELISA on CD47 protein; x axis is log10 of mAb (ng/ml), unit taken from the axis. (In general: An ELISA detects its analyte on a solid surface through an enzyme-linked reagent.)

The target of test [7] is T1, human CD47 on cells. As to the kind of experiment: flow cytometry on CHO-K1/huCD47 cells; unit taken from the axis.
Experimental: as §1
In test [8] the target is T1, human CD47 on cells. The test is described as follows: flow cytometry on red blood cells.
For test [9], the target named is T1, human CD47 on cells. As to the kind of experiment: flow cytometry, blocking of human SIRPα binding to CHO-K1/huCD47 cells; the box on the sheet is labelled EC50; unit taken from the axis.
The target in test [10] is T2, cynomolgus monkey CD47 on CHO-K1 cells. As to the kind of experiment: flow cytometry on CHO-K1/cynoCD47 cells; unit taken from the axis.
Experimental: as §3
Test [11] shares this target. As to the kind of experiment: flow cytometry on CHO-K1/cyno CD47 cells.
Experimental: as §3
The target of test [12] is T1, human CD47 on cells. The test is described as follows: flow cytometry, blocking of human SIRPα binding to CHO-K1/huCD47 cells; the box on the sheet is labelled EC50; unit taken from the axis. This is another data set of the same source.
Experimental: as §2
The target in test [13] is T1, human CD47 on cells. The test is described as follows: flow cytometry on red blood cells; unit taken from the axis.
For test [14], the target named is T1, human CD47 on cells. As to the kind of experiment: flow cytometry on CHO-K1/huCD47 cells (FL2-H channel); unit taken from the axis.
Test [15] concerns the target T2, cynomolgus monkey CD47 on CHO-K1 cells. The test is described as follows: flow cytometry on CHO-K1/cyno CD47 cells; unit taken from the axis. This is another data set of the same source.
Experimental: as §3
For test [16], the target named is T1, human CD47 on cells. As to the kind of experiment: flow cytometry, blocking of human SIRPα binding to CHO-K1/huCD47 cells; B6H12 is the positive control.
Test [17] concerns the target T2, cynomolgus monkey CD47 on CHO-K1 cells. As to the kind of experiment: flow cytometry on CHO-K1/cyno CD47 cells; unit taken from the axis. This is another data set of the same source.
Experimental: as §3
Test [18] addresses T1, human CD47 on cells. The test is described as follows: flow cytometry on human red blood cells.
The target of test [19] is T1, human CD47 on cells. The test is described as follows: flow cytometry, blocking of human SIRPα binding to CHO-K1/huCD47 cells. This is another data set of the same source.

Read-outs that look alike come from different tables or passages of the source.

B1: 108C10A6 (antibody, V domains shown)
VH: QMQLQQSGPQLVRPGASVKISCKTSGYSFTHHWIHWMKQRPGQGLEWIGMIDPSDSETRLSQKFKDKATLTVDASSSTAYMQLNSPTSEDSALYFCARLGRYYFDYWGQGTTLTVSS
VL: NIVMTQSPRSMSMSVGERVTLSCKASENVGTYISWYQQKPDQSPKLLIYGASNRYTGVPDRFTGSGSGTDFTLTISTVQAEDLADYHCGESYGHLYTFGGGTKLEIK
notes: also called murine anti-CD47 antibody 108C10A6; 108C10A6/108C10F5
What is called EC50 is the concentration at which the effect is half-maximal. The term Kd denotes the concentration at which binding is half-saturated. What is called koff is a measure of how fast the partners let go of each other. By kon is commonly meant the rate constant with which the complex forms. As for B1, the EC50 in test [1] was determined as 8.59 nM; in [2], 0.0558 µg/mL; in test [4], 2.03 nM; in test [6], 0.0621 µg/mL. For the same molecule, in [3], the “IC50 (read off the curve)” value was about 1 nM. This molecule came in with a Kd in [5] of 0.74 nM. In test [5], this molecule yielded a koff of 0.00032 s⁻¹. This molecule also displayed a kon in test [5] of 430000 M⁻¹ s⁻¹.

B2: 108C10A6_Chimeric hIgG1 (antibody, V domains shown)
VH: QMQLQQSGPQLVRPGASVKISCKTSGYSFTHHWIHWMKQRPGQGLEWIGMIDPSDSETRLSQKFKDKATLTVDASSSTAYMQLNSPTSEDSALYFCARLGRYYFDYWGQGTTLTVSS
VL: NIVMTQSPRSMSMSVGERVTLSCKASENVGTYISWYQQKPDQSPKLLIYGASNRYTGVPDRFTGSGSGTDFTLTISTVQAEDLADYHCGESYGHLYTFGGGTKLEIKR
notes: also called CD47-108C10A6_Chimeric huIgG1; chimeric 108C10A6
What is called EC50 (read off the curve) is the concentration giving half of the maximal effect. By IC50 is commonly meant the midpoint of a concentration-inhibition curve. With B2, the EC50 came out at 0.551 nM in [7] and 0.491 nM in [10]. The concentration giving a half-maximal response (EC50 (read off the curve)) in test [8] was about 3 nM. Also, the IC50 in test [9] stood at 1.42 nM.

B3: 98E2E12 (antibody, V domains shown)
VH: QVQLQQSGPQLVRPGASVKISCKASGYSFTNHWMHWMKQRPGQGLEWIGMIDPSDSETRLNQQFKDKATLTVDKSSSTAYMQLSSPTSEDSAVFYCARLGRYYFDYWGQGTTLTVSS
VL: NIVMTQSPKSMSVSVGERVTLSCRASDIVGTYVSWYQQKPEQSPKLLIYGASNRYTGVPDRFTGSRSATDFSLTISNVQAEDLADYLCGQSYDSPYTFGGGTKLEIK
notes: purified murine anti-CD47 hybridoma antibody; same VH and VL as 98E2E7; also called 04-98E2E12
As for B3, the results for the EC50 in [1], in test [2] and in [6] were 8.21 nM, 0.00963 µg/mL and 0.00259 µg/mL, respectively. Besides, the “EC50 (read off the curve)” value in [11] was about 2 nM. The molecule further came in with an IC50 in test [12] of 3.74 nM.

B4: B6H12 (antibody, V domains shown)
VH: EVQLVESGGDLVKPGGSLKLSCAASGFTFSGYGMSWVRQTPDKRLEWVATITSGGTYTYYPDSVKGRFTISRDNAKNTLYLQIDSLKSEDTAIYFCARSLAGNAMDYWGQGTSVTVSS
VL: DIVMTQSPATLSVTPGDRVSLSCRASQTISDYLHWYQQKSHESPRLLIKFASQSISGIPSRFSGSGSGSDFTLSINSVEPEDVGVYYCQNGHGFPRTFGGGTKLEIK
Consider B4, for which the EC50 in test [13] came out at 7.74 nM; in test [14], 2.31 nM; in test [15], 13.3 nM; in [17] it was 13.3 nM. Further, the “IC50 (read off the curve)” value in test [16] is about 6 nM. For the same molecule, in [9], the IC50 was 5.4 nM.

B5: 107F11C4 (antibody, V domains shown)
VH: EVQLQQSGAEFVKPGASVKLSCTASGFNIEDTYMHWVKQRPEQGLEWIGMIDPANGKTKYGPRFQDKATVTADTSSNTANLQLSSLTSEDTAVYYCADGIGYYVGAMDYWGQGTSVTVSS
VL: DIQMNQSPSSLSASLGDTITITCHASQNINVWLSWYQQKPGNIPKLLIYKASNLHTGVPSRFSGSGSGTGFTLTISSLQPEDIATYYCQQGHSYPYTFGGGTKLEIK
notes: purified murine anti-CD47 hybridoma antibody; same VH and VL as 107F11B11 and 107F11F10
Turning to B5, the EC50 in test [15] and in test [17] was 1.13 nM each time. The same molecule had an IC50 in [12] of 1.07 nM.

B6: 107F11F10 (antibody, V domains shown)
VH: EVQLQQSGAEFVKPGASVKLSCTASGFNIEDTYMHWVKQRPEQGLEWIGMIDPANGKTKYGPRFQDKATVTADTSSNTANLQLSSLTSEDTAVYYCADGIGYYVGAMDYWGQGTSVTVSS
VL: DIQMNQSPSSLSASLGDTITITCHASQNINVWLSWYQQKPGNIPKLLIYKASNLHTGVPSRFSGSGSGTGFTLTISSLQPEDIATYYCQQGHSYPYTFGGGTKLEIK
notes: purified murine anti-CD47 hybridoma antibody; same VH and VL as 107F11B11 and 107F11C4
As for B6, in [18], the “EC50 (read off the curve)” value is about 0.01 µg/mL. Further, the 50% effective concentration (EC50) in test [15] and in test [17] was 0.931 nM each time. In test [12], this molecule yielded a half-inhibitory concentration (IC50) of 1.08 nM.

B7: 108VH4.M4_VL1.M1-hIgG4PE (antibody)
heavy: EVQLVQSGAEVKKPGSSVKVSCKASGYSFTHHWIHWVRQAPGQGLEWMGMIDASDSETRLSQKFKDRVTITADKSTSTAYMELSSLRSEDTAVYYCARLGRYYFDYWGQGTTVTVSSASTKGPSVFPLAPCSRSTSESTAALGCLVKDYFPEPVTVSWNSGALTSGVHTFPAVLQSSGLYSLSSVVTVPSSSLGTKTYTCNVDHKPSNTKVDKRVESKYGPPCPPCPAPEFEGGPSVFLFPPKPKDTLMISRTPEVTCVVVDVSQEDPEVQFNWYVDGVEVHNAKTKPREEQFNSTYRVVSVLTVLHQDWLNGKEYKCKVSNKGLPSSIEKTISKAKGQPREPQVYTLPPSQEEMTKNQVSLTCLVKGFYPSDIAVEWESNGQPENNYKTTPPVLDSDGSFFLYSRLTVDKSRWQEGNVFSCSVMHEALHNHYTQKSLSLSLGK
light: EIVLTQSPATLSLSPGERATLSCRASENVGTYISWYQQKPGQAPRLLIYGASNRYTGIPARFSGSGSGTDFTLTISSLEPEDFAVYYCGESYGHLYTFGGGTKVEIKRTVAAPSVFIFPPSDEQLKSGTASVVCLLNNFYPREAKVQWKVDNALQSGNSQESVTEQDSKDSTYSLSSTLTLSKADYEKHKVYACEVTHQGLSSPVTKSFNRGEC
notes: also called 108VH4.M4_VL1.M1-hlgG4PE; 108VH4.M4_VL1.M1-hIgG4PE-Ka
For the molecule B7, a half-maximal effect in test [13] (EC50) was put at 3.18 nM. Further, the response in test [7] was half-maximal at 0.586 nM (EC50). In test [5], this molecule returned a Kd of 1.5 nM, a koff of 0.00046 s⁻¹ and a kon of 310000 M⁻¹ s⁻¹. The “IC50 (read off the curve)” value in [19] was about 1 nM. Further, in [10], it took 0.477 nM to reach a half-maximal effect (EC50).
